Results: the supplement of paper PMC9170038

Tested on: MS2 coat protein
Test: apparent KD of MS2 coat protein; designed switch direction (-1 OFF switch, 1 ON switch): -1; higher = weaker reporter binding
Summary of the method: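 Designed RNA switches sharing common flanks were transcribed on Illumina chips by stalled E. coli RNA polymerase. They were titrated with SNAP-549-labelled MS2 coat protein, from 0.7 or 1.5 nM doubling to 3 µM, in Tris-HCl pH 7.5 buffer with KCl, MgCl2, BSA, DTT, tRNA and Tween-20. Titrations ran without input, with 200 uM small-molecule ligand, or with an oligonucleotide input. The apparent KD of each design is the median over its clusters, after curve-fitting of normalised cluster fluorescence.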

[1] = input ligand: microRNA oligo, concentration not stated
[2] = Eterna round: R95, input ligand: microRNA oligo, concentration not stated
[3] = Eterna round: R95, input ligand: FMN 200 uM
[4] = Eterna round: R95, input ligand: none

Row | Sequence | apparent KD of MS2 coat protein (input ligand: FMN 200 uM) | apparent KD of MS2 coat protein (input ligand: none) | apparent KD of MS2 coat protein [2] | further results
1 | GUCGUGCAGCUUUGCUGUACGAGUACAUGAGGAUCACCCAUGUAGGAUAUGGUACGCUUUGCGUGCUAGAAGGAUAUGUGUAGC [salish99_ExNG3_r04_503] (Eterna round: R96, puzzle: Exclusion NG 3) | 0.0448 µM | 0.0371 µM |  | apparent KD of MS2 coat protein [1]: 0.029 µM
2 | GUCGUGCGGCUUUGCUGUACGAGUACAUGAGGAUCACCCAUGUAGGAUAUGGUUCGUUUUGCGUGCUAGAAGGGCGUGCGUUUU [Excl-NG3-LRO16] (Eterna round: R96, puzzle: Exclusion NG 3) | 0.0224 µM | 0.0221 µM |  | apparent KD of MS2 coat protein [1]: 0.0173 µM
3 | GUCUCGUCAGGAUAUGACGCUACAUUUUCUUUUUAGAAGAGUCAGAAGGGACAUGAGGAUCACCCAUGUGAUUC [Ex4 - 3 - 3] (puzzle: Exclusion 4) |  |  | 0.31 µM | 
4 | GUGAGAUAGUUAGUGGCCGACAUGAGGAUCACCCAUGUGAGGGAAAUGUUGAGGCGAAAGCUUUUUGCUCGUCUUUA [JR_SV3TOV1_Sub037] (puzzle: Sensor v3, turn-off variant 1) |  |  | 0.139 µM | apparent KD of MS2 coat protein [3]: 0.03 µM; apparent KD of MS2 coat protein [4]: 0.0348 µM
5 | GUGCAGGUAGGAUAUCCACCGGCAAACAUGAGGAUCACCCAUGUGACGCUCCCUUGUCUUGGAGAAGGGCCGGCAU [Xetemaaren] (puzzle: Exclusion 5) |  |  | 0.0252 µM | 
6 | GUGCGGUGAGGAUAUACGUAGGUGAAAAUCUGUGUGCUCCUACAUGAGGAUCACCCAUGUAGAAGGCAUGUCAC [LRO-Excl2-15] (puzzle: Exclusion 2) |  |  | 0.0147 µM | 
7 | GUGGUGACAGGAUAUACAUGAGGAUCACCCAUGUGAGGAGGACGAGACAGGUGAAGGAGUAGAAGGGUCAGAGG [JR_Exclu3_Sub027] (puzzle: Exclusion 3) |  |  | 0.0745 µM | apparent KD of MS2 coat protein [3]: 0.0667 µM; apparent KD of MS2 coat protein [4]: 0.0603 µM
8 | GUGUAAGGAGGAUAUACAUGAGGAUCACCCAUGUGAAUAAGAUAGAAUAAGAUAAAGUGUAGAAGGCUUAGUGU [Excluse me!!! 25 - Jieux - Exclusion 3] (puzzle: Exclusion 3) |  |  | 0.0386 µM | apparent KD of MS2 coat protein [3]: 0.039 µM; apparent KD of MS2 coat protein [4]: 0.0447 µM
9 | GUGUACGAAGGAUAUACAUGAGGAUCACCCAUGUGAAUAAGAUAGAAUAAGAUAAAGUGUAGAAGGUCGAGUGU [Excluse me!!! 7 - Jieux - Exclusion 3] (puzzle: Exclusion 3) |  |  | 0.0271 µM | 
10 | GUGUACGGAGGAUAUAUGUGGGCAGCAUACGCUGCAGCUUCACAUGAGGAUCACCCAUGUAGAAGGCUGUGCAC [JL-ex2-2.11 Brourd mod] (puzzle: Exclusion 2) |  |  | 0.0201 µM | 
11 | GUGUAGCAAGGAUAUACAUGAGGAUCACCCAUGUGAAUAAGAUAGAAUAAGAUAAAGUGUAGAAGGUGCAGUGU [Excluse me!!! 8 - Jieux - Exclusion 3] (Eterna round: R96, puzzle: Exclusion 3) | 0.0449 µM | 0.0416 µM |  | apparent KD of MS2 coat protein [1]: 0.0315 µM
12 | GUGUAGCAAGGAUAUACAUGAGGAUCACCCAUGUGAAUAAGAUAGAAUAAGAUAAAGUGUAGAAGGUGCAGUGU [Excluse me!!! 8 - Jieux - Exclusion 3] (puzzle: Exclusion 3) |  |  | 0.0366 µM | 
13 | GUGUAGUCAGGAUAUACAGAGGAAGAUAAUACAAUAUAAGUACAUGAGGAUCACCCAUGUAGAAGGGACAGUGU [Excluse me!! 10 - Jieux - Exclusion 2] (puzzle: Exclusion 2) |  |  | 0.0257 µM | 
14 | GUGUGCAGAGGAUAUACAUAGGAAAAUAAAAGAGAAGUGGGACAUGAGGAUCACCCAUGUAGAAGGCUGAGUGU [Excluse me!! 22 - Jieux - Exclusion 2] (puzzle: Exclusion 2) |  |  | 0.0737 µM | apparent KD of MS2 coat protein [3]: 0.0899 µM; apparent KD of MS2 coat protein [4]: 0.0728 µM
15 | GUGUGUGAUGUAGGAUAUACGAGACAUGAGGAUCACCCAUGUGAGGGAAGGAGAAGGAGAAGAGAGUAGAAGGAUAGAGUGUGA [Default title] (Eterna round: R96, puzzle: Exclusion NG 2) | 0.133 µM | 0.131 µM |  | apparent KD of MS2 coat protein [1]: 0.144 µM
16 | GUUAAACAUGAGGAUCACCCAUGUAAGGAUAUGCUGAGGUCGCGCUGACGUGAAUGAAGCAGAAGGUACAAAUG [Mat - Mod of JL D63] (puzzle: Exclusion 1) |  |  | 0.0767 µM | apparent KD of MS2 coat protein [3]: 0.0795 µM; apparent KD of MS2 coat protein [4]: 0.0608 µM
17 | GUUAAACAUGAGGAUCACCCAUGUAAGGAUAUGCUGCGGUCGCGAUGACGUGACUGCAGCAGAAGGUACAAAUG [Mat - Mod of JL D58] (puzzle: Exclusion 1) |  |  | 0.0697 µM | 
18 | GUUAACGCAGGAUAUUAGUACUUUUACAUGAGGAUCACCCAUGUUAAUUGGGUCUAAGAAUAAGAAGGGCGAUGAA [JR_Ex5_Sub009] (Eterna round: R97, puzzle: Exclusion 5) | 0.0483 µM | 0.0428 µM |  | 

Row | Sequence | apparent KD of MS2 coat protein (input ligand: FMN 200 uM) | apparent KD of MS2 coat protein (input ligand: none) | apparent KD of MS2 coat protein [2] | further results
19 | GUUAAGGUAGGAUAUACGAUAAUAUAGGGUAGAAUUAUAACACAUGAGGAUCACCCAUGUAGAAGGACCAAUUG [Mat - Exclusion 2 - Mod of my Tesla design - D52] (puzzle: Exclusion 2) |  |  | 0.0258 µM | 
20 | GUUAGACAUGAGGAUCACCCAUGUGAGGAUAUGAUGCGAUCGUGAUGAAAUGAUCGCAUCAGAAGGCACAUAUG [Mat - Mod of JL D67] (puzzle: Exclusion 1) |  |  | 0.123 µM | 
21 | GUUAUCGCAGGAUAUUAAUACUUGUACAUGAGGAUCACCCAUGUUUAUUGGGAUUAAGAAUAAGAAGGGCGAUGAA [JR_Ex5_Sub003] (Eterna round: R97, puzzle: Exclusion 5) | 0.0528 µM | 0.0278 µM |  | 
22 | GUUAUCGCAGGAUAUUAGUACUUGUACAUGAGGAUCACCCAUGUUUAUUGGGUCUAAGAAUAAGAAGGGCGAUGAA [JR_Ex5_Sub005] (Eterna round: R97, puzzle: Exclusion 5) | 0.105 µM | 0.032 µM |  | 
23 | GUUCGACAUGAGGAUCACCCAUGUGAGGAUAUACGAUUAGCUGCUAGGUAGUUAGUAUGUAGAAGGUGCGUGUA [EX1 #71] (Eterna round: R97, puzzle: Exclusion 1) | 0.036 µM | 0.0343 µM |  | 
24 | GUUCUGACAGGAUAUACAUGAGGAUCACCCAUGUGCCCUUAGAGAUGCAAAGCAUCUUGUAGAAGGGUCUGAAC [Omei Ex3 Model Bachelor's Dilema v27] (Eterna round: R97, puzzle: Exclusion 3) | 0.0421 µM | 0.0376 µM |  | 
25 | GUUGUGUAAGGAUAUGCCUGGCCGUGAGGCCAGAUUGAAUAGCAGAAGGUACAUGAGGAUCACCCAUGUACGGG [salish99_ex4_4_001] (Eterna round: R97, puzzle: Exclusion 4) | 0.109 µM | 0.0227 µM |  | 
26 | GUUGUGUUAGGAUAUAACAACUACUAAUAAAUUAGUAGUUGUUAGAAGGAACAUGAGGAUCACCCAUGUAUGAC [-21.3, -20.2 kcal, A 36%] (Eterna round: R97, puzzle: Exclusion 4) | 0.0525 µM | 0.0305 µM |  | 
27 | GUUGUUUAUGUAGGAUAUGCCUGGCGUGCCUUUGCAGAAGGACAUGAGGAUCACCCAUGUAUUGCGGUCUGCGUUCAGAUCGCC [salish99_ExNG1_r4_041] (Eterna round: R96, puzzle: Exclusion NG 1) | 0.0331 µM | 0.0252 µM |  | apparent KD of MS2 coat protein [1]: 0.0191 µM
28 | GUUGUUUAUGUAGGAUAUGCGAGGCGAGCCUAAGCAGAAGGACAUGAGGAUCACCCAUGUAUUGCGGUCUGCGUUCAGAUCGCU [salish99_ExNG1_r4_016] (Eterna round: R96, puzzle: Exclusion NG 1) | 0.183 µM | 0.0269 µM |  | apparent KD of MS2 coat protein [1]: 0.0192 µM
29 | GUUUAGUGAGGAUAUGUGGCUUCGAUCGUGAGAUCGAGGCUACAGAAGGCACAUGAGGAUCACCCAUGUUCCUC [salish99_ex4_r4_104] (Eterna round: R97, puzzle: Exclusion 4) | 0.516 µM | 0.0389 µM |  | 
30 | GUUUUACAUGAGGAUCACCCAUGUGAGGAUAUGUUAUUAAUAGCGAUAGUUAUUGGUGGCAGAAGGCGCGUGAU [JR_Exc1_Sub011] (Eterna round: R97, puzzle: Exclusion 1) | 0.343 µM | 0.0826 µM |  | 
31 | UAAAAGCGAGGAUAUACAUGAGGAUCACCCAUGUGAGGCGAAACGCCUCGGGCCAUCAGUAGAAGGUGCAAAAC [Veorgebe] (puzzle: Exclusion 3) |  |  | 0.0707 µM | 
32 | UAAAAGCUAGGAUAUACAUGAGGAUCACCCAUGUAUUAGGGCAUGAAAUCGGUCCCACGUAGAAGGAGCGACAC [Dilaxeed] (Eterna round: R97, puzzle: Exclusion 3) | 0.105 µM | 0.0245 µM |  | 
33 | UAAAAGCUAGGAUAUACAUGAGGAUCACCCAUGUCACGGGUCCACUCAUCCUAUACGUGUAGAAGGAGCGACCC [Ceriza] (puzzle: Exclusion 3) |  |  | 0.02 µM | 
34 | UAAAAGGCAGGAUAUGCAGAAAAGGAAACUUUUCAAGAAUGACAUGAGGAUCACCCAUGUAGAAGGGCCUUUUA [Alacar Attempt 3] (Eterna round: R97, puzzle: Exclusion 2) | 0.0155 µM | 0.0162 µM |  | 
35 | UAAAAUAGUGUGAGGAUAUGCUGGUCCUUGGAUCAGCAGAAGGCACAUGAGGAUCACCCAUGUAGUUAAUUUUA [Mat - Exclusion 4 - JL Mod - D23] (puzzle: Brourd's mod of Exclusion 4) |  |  | 0.0308 µM | 
36 | UAAACAAGCUAAAGAUCCUACAUGAGGAUCACCCAUGUGCUCGUCUUAUAAGGUACUGUGACGAAAGUCACGGUACC [JL TOV1 3.00] (Eterna round: R97, puzzle: Sensor, turn-off variant 1) | 0.488 µM | 0.663 µM |  | 
